According to the supplement of paper PMC11246515:
± gives the standard deviation of the averaged measurements.

Assay: total protein half-life in vivo (active degradation + dilution); higher = more stable protein
[1] = E. coli NCM3722 delta-clpP delta-lon delta-hslV, growth: N-lim chemostat, doubling time 6 h
[2] = E. coli NCM3722 delta-clpP, growth: N-lim chemostat, doubling time 6 h
[3] = E. coli NCM3722 delta-hslV, growth: N-lim chemostat, doubling time 6 h
[4] = E. coli NCM3722 delta-smpB, growth: N-lim chemostat, doubling time 6 h
[5] = wild type E. coli NCM3722, growth: C-lim chemostat, doubling time 3 h
[6] = wild type E. coli NCM3722, growth: C-lim chemostat, doubling time 6 h
[7] = wild type E. coli NCM3722, growth: C-lim chemostat, doubling time 12 h
[8] = wild type E. coli NCM3722, growth: N-lim chemostat, doubling time 6 h
[9] = wild type E. coli NCM3722, growth: N-lim chemostat, doubling time 12 h
[10] = wild type E. coli NCM3722, growth: P-lim chemostat, doubling time 6 h
[11] = wild type E. coli NCM3722, growth: P-lim chemostat, doubling time 12 h
[12] = E. coli NCM3722 delta-lon, growth: N-lim chemostat, doubling time 6 h

Row | Sequence | total protein half-life in vivo [1] [h] | total protein half-life in vivo [2] [h] | total protein half-life in vivo [3] [h] | total protein half-life in vivo [4] [h] | total protein half-life in vivo [5] [h] | total protein half-life in vivo [6] [h] | total protein half-life in vivo [7] [h] | total protein half-life in vivo [8] [h] | total protein half-life in vivo [9] [h] | total protein half-life in vivo [10] [h] | total protein half-life in vivo [11] [h] | total protein half-life in vivo [12] [h]
1 | MLRLLEEKIATPLGPLWVICDEQFRLRAVEWEEYSERMVQLLDIHYRKEGYERISATNPGGLSDKLREYFAGNLSIIDTLPTATGGTPFQREVWKTLRTIPCGQVMHYGQLAEQLGRPGAARAVGAANGSNPISIVVPCHRVIGRNGTMTGYAGGVQRKEWLLRHEGYLLL [P0AFH0] | 5.81 ± 0.46 | 4.8 ± 0.28 | 6.05 ± 1.3 | 3.86 ± 0.21 | 2.61 | 5.29 ± 0.24 | 10.4 ± 0.61 | 4.55 ± 0.71 | 7.793 ± 0.026 | 5.07 ± 0.087 | 8.9 ± 0.66 | 
2 | MRIIDNLEQFRQIYASGKKWQRCVEAIENIDNIQPGVAHSIGDSLTYRVETDSATDALFTGHRRYFEVHYYLQGQQKIEYAPKETLQVVEYYRDETDREYLKGCGETVEVHEGQIVICDIHEAYRFICNNAVKKVVLKVTIEDGYFHNK [P0AC73] |  |  |  |  | 2.92 ± 0.37 | 6.04 ± 0.63 | 9.85 |  |  |  |  | 
3 | MNKRDAINHIRQFGGRLDRFRKSVGGSGDGGRNAPKRAKSSPKPVNRKTNVFNEQVRYAFHGALQDLKSKPFATFLTVMVIAISLTLPSVCYMVYKNVNQAATQYYPSPQITVYLQKTLDDDAAAGVVAQLQAEQGVEKVNYLSREDALGEFRNWSGFGGALDMLEENPLPAVAVVIPKLDFQGTESLNTLRDRITQINGIDEVRMDDSWFARLAALTGLVGRVSAMIGVLMVAAVFLVIGNSVRLSIFARRDSINVQKLIGATDGFILRPFLYGGALLGFSGALLSLILSEILVLRLSSAVAEVAQVFGTKFDINGLSFDECLLLLLVCSMIGWVAAWLATVQHLRHFTPE [P0AC30] | 6.31 ± 0.59 | 6.43 ± 0.28 | 6.04 ± 0.071 | 6.02 ± 0.32 | 3.17 ± 0.15 | 5.86 ± 0.36 | 12.5 ± 2.4 | 6.42 ± 0.099 | 12.3 ± 1.8 | 5.99 ± 0.82 | 13.5 ± 1.3 | 6.55 ± 0.64
4 | MAAKDRIQAIKQMVANDKKVTVSNLSGIFQVTEETIRRDLEKLEDEGFLTRTYGGAVLNTAMLTENIHFYKRASSFYEEKQLIARKALPFIDNKTTMAADSSSTVMELLKLLQDRSGLTLLTNSAEAIHVLAQSEIKVVSTGGELNKNTLSLQGRITKEIIRRYHVDIMVMSCKGLDINSGALDSNEAEAEIKKTMIRQATEVALLVDHSKFDRKAFVQLADFSHINYIITDKSPGAEWIAFCKDNNIQLVW | 5.6 ± 0.062 |  | 5.31 ± 0.24 | 5.12 ± 0.069 | 2.93 ± 0.12 | 5.96 ± 0.83 | 9.64 ± 0.74 | 5.5 ± 0.2 | 9.92 ± 1.1 | 5.45 ± 0.52 | 13 ± 2.9 | 5.25 ± 1.1
5 | MGLPPLSKIPLILRPQAWLHRRHYGEVLSPIRWWGRIPFIFYLVSMFVGWLERKRSPLDPVVRSLVSARIAQMCLCEFCVDITSMKVAERTGSSDKLLAVADWRQSPLFSDEERLALEYAEAASVTPPTVDDALRTRLAAHFDAQALTELTALIGLQNLSARFNSAMDIPAQGLCRIPEKRS | 6.87 ± 0.28 | 6.4 ± 0.37 | 6.22 ± 0.48 | 5.67 ± 0.46 | 2.74 ± 0.068 | 5.52 ± 0.59 | 12.1 ± 0.48 | 6 ± 0.46 | 11.3 ± 3.4 | 6.48 ± 0.71 | 13.1 ± 0.5 | 6.463 ± 0.023
6 | MAEETIFSKIIRREIPSDIVYQDDLVTAFRDISPQAPTHILIIPNILIPTVNDVSAEHEQALGRMITVAAKIAEQEGIAEDGYRLIMNTNRHGGQEVYHIHMHLLGGRPLGPMLAHKGL [P0ACE7] |  | 5.01 ± 0.59 | 4.88 ± 0.38 | 4.71 ± 0.36 | 3.32 ± 0.21 | 5.24 ± 0.32 | 8.75 ± 1.9 | 4.31 ± 0.051 | 7.64 ± 0.66 | 5.65 ± 0.32 | 12 ± 1.3 | 
7 | MSQVLITGATGLVGGHLLRMLINEPKVNAIAAPTRRPLGDMPGVFNPHDPQLSDALAQVTDPIDIVFCCLGTTRREAGSKEAFIHADYTLVVDTALTGRRLGAQHMLVVSAMGANAHSPFFYNRVKGEMEEALIAQNWPKLTIARPSMLLGDRSKQRMNETLFAPLFRLLPGNWKSIDARDVARVMLAESMRPEHEGVTILSSSELRKRAE | 6.13 ± 0.065 | 5.36 ± 0.4 | 5.98 ± 0.48 |  | 3.24 ± 0.14 |  |  | 5.69 ± 1.1 |  |  |  | 6.26 ± 0.69
